Reference: publication PMC8862428, “Modeling the stimulation by glutathione of the steady state kinetics of an adenosine triphosphate binding cassette transporter” (Protein Science : A Publication of the Protein Society, 2021)

Substrate: Nc1ncnc2c1ncn2[C@@H]1O[C@H](COP(=O)(O)OP(=O)(O)OP(=O)(O)O)[C@@H](O)[C@H]1O
Experiment: molybdate phosphate-release ATPase assay, global fit to nonessential activator model
Format: biochemical, Novosphingobium aromaticivorans
Conditions: nanodiscs (MSP1D1/POPC), basal ATPase, constant for transporter without GSSG, Mg complex of ATP, 100 mM NaCl, 20 mM Tris pH 7.5, 37 °C
Text: molybdate phosphate-release ATPase assay, global fit to nonessential activator model on NaAtm1

B1: NaAtm1 (Novosphingobium aromaticivorans DSM 12444) (protein)
chain: MPPETATNPKDARHDGWQTLKRFLPYLWPADNAVLRRRVVGAILMVLLGKATTLALPFAYKKAVDAMTLGGGAQPALTVALAFVLAYALGRFSGVLFDNLRNIVFERVGQDATRHLAENVFARLHKLSLRFHLARRTGEVTKVIERGTKSIDTMLYFLLFNIAPTVIELTAVIVIFWLNFGLGLVTATILAVIAYVWTTRTITEWRTHLREKMNRLDGQALARAVDSLLNYETVKYFGAESREEARYASAARAYADAAVKSENSLGLLNIAQALIVNLLMAGAMAWTVYGWSQGKLTVGDLVFVNTYLTQLFRPLDMLGMVYRTIRQGLIDMAEMFRLIDTHIEVADVPNAPALVVNRPSVTFDNVVFGYDRDREILHGLSFEVAAGSRVAIVGPSGAGKSTIARLLFRFYDPWEGRILIDGQDIAHVTQTSLRAALGIVPQDSVLFNDTIGYNIAYGRDGASRAEVDAAAKGAAIADFIARLPQGYDTEVGERGLKLSGGEKQRVAIARTLVKNPPILLFDEATSALDTRTEQDILSTMRAVASHRTTISIAHRLSTIADSDTILVLDQGRLAEQGSHLDLLRRDGLYAEMWARQAAESAEVSEAAE
notes: His-tag (NiNTA) purified from E. coli BL21-gold (DE3); 135 kDa transporter (homodimer); in DDM/C12E8 detergent, MSP1D1/POPC nanodiscs or proteoliposomes
B1 was tested, and the Km was 1410 ± 80 µM and the kcat was 0.531 ± 0.0173 s⁻¹.
